Assay results taken from article doi:10.1101/820647.

Columns and labels:
Assay in all cases: ITC
[1] = molecular target: CDYL1b chromodomain (aa 1-66) (human) (UniProt Q9Y232)
[2] = molecular target: CDYL2 chromodomain (aa 2-62 or 2-64) (human) (UniProt Q8N8U2)
[3] = molecular target: CDY1 chromodomain (aa 2-63) (human) (UniProt Q9Y6F8)
Chain of UniProt Q9Y6F8 (Q9Y6F8 2-63): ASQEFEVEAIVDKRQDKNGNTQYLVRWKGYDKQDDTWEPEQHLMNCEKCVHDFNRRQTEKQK

Chain of UniProt Q8N8U2 (Q8N8U2 2-64): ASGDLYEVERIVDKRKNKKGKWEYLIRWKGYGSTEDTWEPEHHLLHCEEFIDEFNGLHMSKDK

Row | Substance | fold more potent than to CBX7 [1] | fold more potent than to CBX7 [2] | Kd [3]
1 | UNC4850 (peptide) | 10 fold | 10 fold | 
2 | H3K27me3 peptide (canonical histone H3) |  |  | 93 µM
3 | H3K9me3 peptide |  |  | 0.5 µM
4 | H3tK27me3 peptide (testis-specific histone H3t) |  |  | 32 µM
